Results from the domain aggregation screens of Martell et al. (2025).

Assay: soluble fraction after stress (log2 fold change); higher = more stays soluble; pooled small domains, quantitative proteomics
Conditions: stress: 75 degC
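Further: 20 min heating vs room temperature control held 20 min.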

Row | Sequence | soluble fraction (log2)
1 | HMLYEDVQVPNVRYWKSRDAKKQLEDLGLRVLTEHVNDAYIQSDQVIRTSPEIGDTLRTGDTVTLYVSDG | 0.163
2 | HMKESFAQLFSLLTPTEQKVAALISQGFSNKDIAAKMFISLSTVKTHTNHIFAKMGVANRNALVAKVNN | -1.46
3 | HMVPHTTSMVAEVQERLFNLNYDPGPINGRMDQATITAITRFQRNFSLPQTGQIDEGFLNTLRDARL | -0.73
4 | HMQKLKINKYKDPKGEIRYYIASTIRNGNKSSTHNLLSLGKHSDLLKEHSDVEAYLKERLNEAMESGI | -0.0843
5 | HMKKGATVSGVIVEKTKKSLIIDLGAKTEGVVADKEFEFAIDFVKELKKGDEVKAIVISTDNDKGQVVLSL | -0.414
6 | HMGLPAWVPQNYIDRVTAIYDYSADKDDELTFNEGSTIFVLKKNDDGWWEGVMDGVTGLFPGNYVEAT | -0.971
7 | HMTKNEFLQGLKEELEGRVTHSAIQENIRYYDDYISQEVLKGSTEEEVTESLGGPRIIARTIVDAAYD | 0.0243
8 | HMKEIDVPNVVGASENAARKLLESYGFQVEVQWENGERVDNAVVKSYSPNGSAKSGSTVTIVLGT | 0.0998
9 | HMLTTIRKATVNDKTRIMEIYAYARQFMAEHGNPNQWKNNNPSEETIDNDIAKQEMYVIETDGEVHAVFY | -1.64
10 | HMGSIRDIIVQYLSKFDDPQPAAKIVEYVQQYRDTTESSIRSSMGSGDQFVQFSGGLYGLKDKTYAAWYSI | -0.916
11 | HMNTGTTISYSDFRDRVASGTVKEVQISDDRITGVLKNDETFNTVPVGNDSGLTKLLDDNGVTYSGTP | 0.299
12 | HMGSDAFDISKLNLVGKTKESAESLLKENGFSVDTKEEASDTAAKGTVISYSPTKPKNGERVTLTVSSGK | 0.385
13 | HMAVLFFVKRGERILGPTRLADLFQHAASGRLRANDLVGESPKGPWLPARQLDELEDAWASSRDATEAAAA | -0.817
14 | HMEIDFDKINSIFNDANKLYEEGDYFEANNLYKNIVSSNIISKDLYYNLGLSYAKIGSNGYAILWYERALN | -0.0259
15 | HMIGVQEFAMTYALTRRETEITQLIIQGKSNAMIAGELFISETTVKKHVSNIFEKTGVSRREELMVRVQAE | -1.98
16 | HMRQMSEELQSAKEALEDRRTQEKAVLLLMEHRNISNDEAHRLLRKLAMDQGKRLPEVARALVSMAGVL | -0.319
17 | HMQNAMQKELIDAFQKAYPDLDITKIELVYGTYYEVEAMNSTTEFTYRYDQNSKTFILAEQDNADP | -0.203
18 | HMKELTELIEKIKLRRLELGLSYQELSDLTGINKSTLQRYETGFIKKVPINQVQIIAKALNVTPGYLMG | -0.72
19 | HMNSNKFANAAAVAVAEKPADSYNPLFIYGPSGVGKTHLLYAIANEIHKHHPDYNIVYIKGDQFTNELIN | 0.088
20 | HMWSAREQVVNSLREAILTSELKAGERLVLSDLSARLGVSVTPIREALQSLEREGLVQLMPHQEAVVV | 0.18
21 | HMEYLIENYGSVINQARMKKGMTQEQLSSKTGVSQAYIRSIESQNMKPTDAVARKIEFELGIKLFE | -1.05
22 | HMSEQVTMIDVEGKTETEAKKALEDLGLKVEITYESADAAAGTVIGQDVKAGSTVSEGSRVTLTVSGQ | 0.528
23 | HMHKYQVGETVYYTSPTFGRAAATGSYIVVKLLPSEGDDYQYRIKSSGEAFERVAKESQLDR | -0.57
24 | HMMKLSKRQEQIIAVVKEHQPVSGERISDILAVSRATLRSDLSFLTLSGILKASPKVGYTYES | -3.4
25 | HMDPTHDMHFLVKDQVTGQPLPNMPYRLQLDNGQTLTGRTDALGMTEKISGHSPHIASIEVPY | 0.117
26 | HMDFTPDQIARLDDIISRYKDKPGGLIPVLEEAQVALEYLPIGVQKRIAKGLNLPLSRVYGVVTFYSFFTM | -0.0122

Row | Sequence | soluble fraction (log2)
27 | HMHQALLEQSAEHAQQVKAYELLLTAERALDEENTEAFLSAMKSLKPLAENLDAKGKALYQELLPFVTEA | 0.485
28 | HMTQDFEPGGQVFSRGEWLTIIRVNKSNGAVSSVTTPNYSFLGYSGTMKVTPDRITDYKAPSAEEAAVAS | -0.451
29 | HMKETLSINSTDFEVRRSSRRKRISVGFDTGTETFFIAAPTKLAGTDILRILGPQISRLMDRLT | -2.22
30 | HMRDPLNTGFRQTLKDIVNSLPKNELYSPGVREEYIYPKIGVTSLGMEASMVLNGLISSRRKNIELKEKN | 0.369
31 | HMNINLNVGKRLKSIRQNKELSLDEVSNLTNVSKPALAQIERGASSPTINTLWKISKGLKVPLSYFLQE | -0.713
32 | HMKNTADRVYENLFHMLVSGDYAPGDRIPSEHELKERFNVSRNTIRAALNRMNALGIIETRQGDGTYLKG | -0.472
33 | HMATESYYVLKADVPAKTLVTQEMVEEIKVSKGGAPVNSIKIDNIKEKGVYTSIPLLKGDVLSASNTG | 0.131
34 | HMLLNPFERLTERELEIADLYAKGYGNLEIANFLSIKQNTVSTYKKRIFEKLGIDNLVELIELIKNY | 0.265
35 | HMSTIKEKIIQYLDFKGISKYDFYQKTGVSNGVLSQKSGMSEDNIMRFLSYYDDINTDWLFYGKGEMIKT | -2.06
36 | HMGSQQIEEGMRRLVASGALRPGASVPSVRDLARDLQVNPATVVRAYQRLVDAGLLVVRRGEGTFVAE | -1.77
37 | HMQSLIVPVPKPEDDPVYKDGIKQDPVEVVSIWLGRDYLNMILNLKVSTGKGHTFGIVEDVS | -0.157
38 | HMKSLLSRREQEVLELVSRGFSYSEIAELKNLSVHTIQTHIKSLYGKLEVHSKMEAVLEATRMGLLPQ | -2.34
39 | HMIPESVQGIEEFLATGALKGIGKKTAAAIVHKFGKDTLRIMEEEPERLAEVSGIGEKKAAAIGEAFALH | 0.134
40 | HMSRYAFEGNVVRLNQKDFDSWKALFTNIDLVSELTRLDIEFTHDKPKNWFSTASAKLNYQNKNAY | -2.51
41 | HMSQPLYWQIRRMVIDHDDANDVLQNTFIKAWSNIGSFRGDAKFSTWLYKIAVNESITFINKKKVQN | -0.44
42 | HMASKTGTITATSLNVRSGAATTYSILGTLSNGKTVTIYEESNGWYKINYNGGYGWVSKTYVSTG | -1.53
43 | HMRTTYKTRLETLLAGPMSAGDRRFASSLLDFYNRKNRLTPGRARFVAQLEDRYSAEALAARQG | -1.19
44 | HMVEELDVQFIKLTVQGDHPWKNKKIRELSIPWDLLFVLIIRGDKSIIPNGKTTIKDGDIVVVSAPEYRG | -1.12
45 | HMNDIVKIYTTHRIINIEGLAKNEPIMLYTINGTLIDKSVSSNGSAQLHVKGIGVYLVKWANNIVKVIVPN | -4.81
46 | HMRLGQLQSVEEPKFIEVHSGKQGDIGEQTIVEYEIDAKYATGDATINLKLLFRDGLFEIYNFNFSSEALL | 0.133
47 | HMNKFKVNERVRVIATGEIGIVKGREILPVEGSKRVNIEYLVKVGNGFSNWKAFSKKELEPVR | -1.88
48 | HMASDLPTVTIMGKTFYTYVAKKGESFFGIANRFGWDPELLVKTNRELETPLDKGALIYYPVPKKPK | -1.32
49 | HMDVEMLIDKYQLNDSEAEVLRFMKKNRQSLKTIGIRDVAKATYVSTATIINMAKKIGYSGYSELVFALGN | -1.69
50 | HMGIRAFDPEAFDERLKEFFSMIAPYKKLDTRSLQPHFPHHAKEVAERIRQLAEAGKIKVDGFYISEL | -0.587
51 | HMGKPAGLIRELGNHPEDEKPVTLNNGRFGPYVKHGKVMASLTKADSPDDITFDRAIELIAIKAEKMAAKG | 0.173
52 | HMGQLVYPAGVYDVNKSYITDSNSAPYVLDKTDNNYYVLNTQMTWKGTEQDNKTPSQSYEESGGSVWLLFD | -0.118

Row | Sequence | soluble fraction (log2)
53 | HMNTIFSVNGPVVKVKDTKDFSMMEMVYVGEKKLIGEVIGITESFTTIQVYEVTTGLKVGEPVYTTGAPM | -0.361
54 | HMTTETGTVKWFNEGKGFGFIAPDGGGKDLFAHFKEIQGSGFKTLTENQRVQFEVTQGQKGPQASNIRTL | 0.227
55 | HMAPFVIQQGQDVRLISKGPGFAVSNDGKALTNAAEGQLARARTANGQTVSGIARQGGIIEIA | -0.0321
56 | HMAMTQNVDLAGRIVFNEKKEEVFNFGKHKGRSVAEVFEKEPSYYDWMLKGDFPAETKQVLTALRLRGLS | -0.186
57 | HMKEEDLPREYTDILGNSVHERLNIMIHDIIEHSQDKPEVAMSPEREEAMHGLRRWMFDHVYH | -0.168
58 | HMMQEIKLEVINNEELRIDNYINLAGIGLSRSYIQKLIKDGVILVNGKEVKSSYKVSLGDIISVQIPDPG | -0.436
59 | HMAQRAADEARTHEILGLLRQARAALDHGGTARAARLRASIAEKLPAAPALPAWFARQLEQVDSQLAELQD | -0.768
60 | HMQLTPAQHAILAHALEHSDGKIVWFPDNIKGGARKKVLDGLLNRALITTDGTDWFVAAEGYDAMGR | -0.386
61 | HMEAELNSLVKTYENMKPKAAAQVFEELDMDVLLDVVERMKEKKLAPILAQVTPTRAKEITYELTQRR | -0.102
62 | HMLNVNDVIARNVRAARERKKLTLDGAAELTGVSRSMLAQIEKGEVNPTISVVWKIANGFKVSFTSLVEPQ | -3.85
63 | HMNIIMLGEFIKEQRIKRKMTQEYLASELGISRPTYSQIELGTRELTIPEARKMAAIFNISLEDFLAEKE | -2.35
64 | HMVSDTGAIEAIVAQVLADNPKLVEGYLATPEDKRGKAIGPFIGLTRKAAAGVNPQVVMDVLKKKLSEL | -0.27
65 | HMDTFNVIARQEIDGILYEYKIMTVEDYKNQSPENLAVIYENIKAVMEQYDLSEDDADAILVDLLG | -1.14
66 | HMSNFGALLRMRRLEAGLSYRGLAEQSGLARATLVNLEQGLTKPSPLTMRRLASVKALRLTEL | -3.17
67 | HMLRQRVFRIIQNNINSKNYFVYTKQILAELAGISMRSLNRTLSELQNDRLIIVDSGTIRLFT | -3.12
68 | HMGKPVTMELLIPYSQGSLVHRISEAGEVAKTEYQNDGTYMQVTFTPSAKDHALMQEVASYRI | 0.653
69 | HMKNAMTDIYLEEIKKILTKNEFLVYTLRELNNFSVQFITDNYDLSEKTIYNSVYRAKKKIDRHFT | -0.159
70 | HMGPIITKTYNLSYATARDVNDIIKSKKSARGDIVIDTRTNSLIVSDVQEKIDLIDEIVATL | -0.368
71 | HMADMKIHLRPYAHDTNRWHVDIRLMHPTAATEIRKRLVAPAGLSEAQARAWGERQVPTILGKALGVI | -1.65
72 | HMSDRFLDQEGVALSTLRPSGTVVLDSGEHLDVVTRGEFIEQGERVKVIKAESTWYVVEQIN | 0.112
73 | HMAPGVHVEALLPYTAGSLVSQIREYGNVDAVEYRDTGILLQADVDERLAAQIMDQALEDPV | 0.0715
74 | HMPDGTATATASVNVRSGASTLSPVLGVLRVGESIGVTGQANGGWVPVNYNGRAGYVYAAYLSFD | -0.915
75 | HMATSNGEFVIPDGGLQFEELERSLLMQALKKSGGSQTGAARLLGLSRDTLRYRLEKFGIDAAAVRE | -0.39
76 | HMAEVDDESIKLYDGGYQSNTTKSRLNALLSEFGYDTEHVFQKQFEWFISIFDLTEKAMRTVPFSNGMRL | 0.0627
